Values of other authors, collected in article PMC7768908 (Biochemistry, 2020).

What was measured:
[1] = system: cytoplasmic tail of MT1-MMP; details: ref [13]
[2] = system: MT1-MMP; details: by binding the cytoplasmic tail of MT1-MMP; ref [13]

B1: ADI1 gene product: ADI1 gene encoding HsARD; human acireductone dioxygenase (protein, UniProt Q9BV57 1-179, looked up)
Acireductone dioxygenase: MVQAWYMDDAPGDPRQPHRPDPGRPVGLEQLRRLGVLYWKLDADKYENDPELEKIRRERNYSWMDIITICKDKLPNYEEKIKMFYEEHLHLDDEIRYILDGSGYFDVRDKEDQWIRIFMEKGDMVTLPAGIYHRFTVDEKNYTKAMRLFVGEPVWTAYNRPADHFEARGQYVKFLAQTA
In the case of B1, the “binding to the cytoplasmic tail of MT1-MMP” value [1] is given as “binds to the cytoplasmic tail of MT1-MMP” and the “effect on MT1-MMP protease activity” value [2] is given as “suppressing protease activity”.
